The results in this text go back to paper PMC11621822.

This experiment concerns the target recombinant heat shock protein 70 cognate 3 (Hsc70-3), protein encoded by AAEL017349 (Aedes aegypti). The experiment is described as follows: ELISA. (ELISA stands for enzyme-linked immunosorbent assay.)

As to “recombinant E protein Receptor (EPrRec), protein encoded by AAEL011180 (natural protein)”, the half-maximal effective concentration (EC50) – broadly, the concentration needed to bring the measured effect to its halfway point – is 70.7 nM.
